What was measured:
HLA-B*27:03 = experiment: IEDB peptide-MHC binding, purified MHC/competitive/fluorescence; filed as Kd, often an IC50 or EC50 that approximates it; ≥ and ≤ were set here for values at or beyond the usual limits of such assays; conditions: source organism: Bacillus anthracis str. A0488
HLA-A*26:01 [1] = experiment: as above; conditions: source organism: Bacillus anthracis str. A0488
HLA-B*46:01 [2] = experiment: as above; conditions: source organism: Bacillus anthracis str. A0488
HLA-B*39:01 [3] = experiment: as above
HLA-B*18:01 = experiment: as above; conditions: source organism: Bacillus anthracis str. A0488
HLA-B*15:17 = experiment: as above; conditions: source organism: Bacillus anthracis str. A0488
HLA-B*57:01 [4] = experiment: as above; conditions: source organism: Bacillus anthracis str. A0488
HLA-B*51:01 = experiment: as above; conditions: source organism: Bacillus anthracis str. A0488
HLA-A*02:01 = experiment: as above
HLA-A*02:11 = experiment: IEDB peptide-MHC binding, purified MHC/direct/fluorescence; filed as Kd, often an IC50 or EC50 that approximates it; ≥ and ≤ were set here for values at or beyond the usual limits of such assays; conditions: source organism: Bacillus cereus G9842
HLA-A*02:19 = experiment: as above; conditions: source organism: Bacillus cereus G9842
HLA-A*02:12 = experiment: as above; conditions: source organism: Bacillus cereus G9842
HLA-A*11:01 = experiment: as above
HLA-A*02:03 [5] = experiment: as above; conditions: source organism: Bacillus cereus G9842
HLA-A*02:16 = experiment: as above; conditions: source organism: Bacillus cereus G9842
HLA-B*15:09 = experiment: as above
HLA-A*69:01 = experiment: IEDB peptide-MHC binding, purified MHC/competitive/fluorescence; filed as Kd, often an IC50 or EC50 that approximates it; ≥ and ≤ were set here for values at or beyond the usual limits of such assays
HLA-A*02:03 [6] = experiment: as above; conditions: source organism: Homo sapiens
HLA-B*15:01 = experiment: as above; conditions: source organism: Vaccinia virus Copenhagen
HLA-C*05:01 = experiment: IEDB peptide-MHC binding, purified MHC/direct/fluorescence; filed as Kd, often an IC50 or EC50 that approximates it; ≥ and ≤ were set here for values at or beyond the usual limits of such assays; conditions: source organism: Vaccinia virus Copenhagen
HLA-B*40:01 = experiment: as above; conditions: source organism: Cowpox virus
HLA-A*26:01 [7] = experiment: as above; conditions: source organism: Variola virus
HLA-B*46:01 [8] = experiment: as above; conditions: source organism: Cowpox virus
HLA-A*01:01 = experiment: as above; conditions: source organism: Cowpox virus
HLA-B*39:01 [9] = experiment: as above; conditions: source organism: Variola virus
HLA-A*31:01 = experiment: as above; conditions: source organism: Cowpox virus
HLA-A*03:01 = experiment: as above; conditions: source organism: Cowpox virus
HLA-B*57:01 [10] = experiment: as above; conditions: source organism: Cowpox virus
HLA-B*27:05 = experiment: as above; conditions: source organism: Cowpox virus
HLA-B*08:01 = experiment: as above; conditions: source organism: Variola virus
HLA-B*58:01 = experiment: as above; conditions: source organism: Variola virus
HLA-B*48:01 = experiment: as above; conditions: source organism: Cowpox virus
[11] = source organism: Bacillus anthracis str. A0488
[12] = source organism: Vaccinia virus Copenhagen

Sequence: MFKNFPFFK
- Kd (HLA-B*27:03): ≥ 20 µM
- Kd (HLA-A*26:01 [1]): ≥ 20 µM
- Kd (HLA-B*46:01 [2]): ≥ 20 µM
- Kd (HLA-B*39:01 [3]; [11]): ≥ 20 µM
- Kd (HLA-B*18:01): ≥ 20 µM
- Kd (HLA-B*15:17): ≥ 20 µM
- Kd (HLA-B*57:01 [4]): ≥ 20 µM
- Kd (HLA-B*51:01): ≥ 20 µM
- Kd (HLA-A*02:01; [11]): ≥ 20 µM
- Kd (HLA-A*02:11): ≥ 20 µM
- Kd (HLA-A*02:19): ≥ 20 µM
- Kd (HLA-A*02:12): ≥ 20 µM
- Kd (HLA-A*11:01; source organism: Bacillus cereus G9842): ≤ 0.001 µM
- Kd (HLA-A*02:03 [5]): ≥ 20 µM
- Kd (HLA-A*02:16): ≥ 20 µM

Sequence: SRAGISVVL
- Kd (HLA-B*39:01 [3]; source organism: Serratia marcescens): 0.0047 µM
- Kd (HLA-B*15:09; source organism: Salmonella enterica subsp. enterica serovar Typhimurium str. LT2): 0.207 µM

Sequence: YQGSYGFRL
- Kd (HLA-A*69:01; source organism: Homo sapiens): ≥ 20 µM
- Kd (HLA-A*02:03 [6]): 2.14 µM
- Kd (HLA-A*02:01; source organism: Homo sapiens): 0.013 µM

Sequence: YTDLTYQSF
- Kd (HLA-A*69:01; [12]): ≥ 20 µM
- Kd (HLA-B*15:01): 2.64 µM
- Kd (HLA-A*02:01; [12]): ≥ 20 µM
- Kd (HLA-C*05:01): ≤ 0.001 µM
- Kd (HLA-B*15:09; source organism: Variola virus): ≥ 20 µM
- Kd (HLA-B*40:01): ≥ 20 µM
- Kd (HLA-A*26:01 [7]): 0.233 µM
- Kd (HLA-B*46:01 [8]): ≥ 20 µM
- Kd (HLA-A*01:01): 0.019 µM
- Kd (HLA-B*39:01 [9]): ≥ 20 µM
- Kd (HLA-A*31:01): ≥ 20 µM
- Kd (HLA-A*11:01; source organism: Cowpox virus): ≥ 20 µM
- Kd (HLA-A*03:01): ≥ 20 µM
- Kd (HLA-B*57:01 [10]): 3.76 µM
- Kd (HLA-B*27:05): ≥ 20 µM
- Kd (HLA-B*08:01): ≥ 20 µM
- Kd (HLA-B*58:01): 0.083 µM
- Kd (HLA-B*48:01): ≥ 20 µM
